# According to patent US6511816B1, “DNA gyrase-inhibiting proteins” (priority 1996, dated 2003):
# B1: DGI: about 18 kDa Escherichia coli protein inhibiting DNA gyrase supercoiling activity, Sequence ID NO:7 (protein)
# chain: MNYEIKQEEKRTVAGFHLVGPWEQTVKKGFEQLMMWVDSKNIVPKEWVAVYYDNPDETPAEKLRCDTVVTVPGYFTLPENSEGVILTEITGGQYAVAVARVVGDDFAKPWYQFFNSLLQDSAYEMLPKPCFEVYLNNGAEDGYWDIEMYVAVQPKHH
# modifications: Escherichia coli strain KL16
# B2: dgi gene antisense RNA: antisense RNA expressed from pLEX carrying the dgi fragment (255th-728th bases of Sequence ID NO:6) (nucleic acid)
# antisense: ATGAACTACGAGATTAAGCAGGAAGAGAAACGTACCGTTGCAGGTTTCCATCTCGTTGGCCCGTGGGAACAGACGGTAAAGAAAGGCTTTGAGCAGTTGATGATGTGGGTAGATAGCAAAAATATTGTGCCGAAGGAGTGGGTTGCTGTCTATTACGACAATCCAGATGAAACACCCGCCGAAAAATTACGCTGCGACACCGTCGTGACGGTGCCGGGTTACTTTACGCTTCCCGAAAACAGTGAGGGCGTCATTCTGACAGAAATTACAGGTGGTCAGTATGCGGTGGCGGTAGCTCGTGTAGTCGGTGATGATTTTGCTAAACCCTGGTATCAGTTCTTTAATAGTCTCTTGCAGGACAGTGCTTATGAAATGTTACCAAAGCCCTGCTTCGAGGTTTATTTGAACAATGGCGCGGAAGATGGGTACTGGGATATCGAAATGTATGTTGCGGTGCAGCCAAAACATCACTAA
# modifications: antisense orientation RNA; Escherichia coli strain KL16
# What was measured:
# [1] = target: Escherichia coli DNA gyrase (subunit A and subunit B) (Escherichia coli) (UniProt P0AES4); test: cell-based or functional assay
# [2] = tested on: E. coli GI724 (pCA17) strain; test: Microscopic observation of strains expressing a large amount of DGI; type: cell-based, Escherichia coli; details: tryptophan-induced expression from pCA17
# [3] = target: Escherichia coli DNA gyrase (subunit A and subunit B) (Escherichia coli, UniProt P0AES4+P0AES6)
# Protocol: Using the purified DGI obtained in Example 4 above, DGI activity, i.e. the inhibiting activity against DNA gyrase activity (supercoiling activity), was measured. Each 5 μl of DNA gyrase subunit A (1U) and subunit B (1U) were each added to a reaction mixture for activity measurement (20 mM Tris-HCl (pH7.5), 20 mM KCl, 4 mM MgCl2, 4 mM spermidine, 1.5 mM ATP, 1 mM DTT, 30 μg/ml t-RNA, 15 μg/ml BSA and 0.1 μg relaxed pBR322 DNA), and DGI (protein concentration 25, 12.5, 6.25, 3.13, 1.56, 0.78 or 0.39 μg/ml) was added thereto for the reaction for 1 hour at 37° C. After stopping the reaction by addition of 3 μl of proteinase K (1 mg/ml) while keeping the temperature at 37° C. for 30 minutes, the reaction mixture was subjected to electrophoresis with 0.8% agarose gel, dyed with a 0.5 μg/ml solution of ethidium bromide and photographed under radiation of the ultraviolet rays. The amount of super-coiled DNA was measured with a densitometer (Shimadzu-wavelength flying spot scanner CS-9000, available from Shimadzu Seisakusho Co.). The presence or absence of DNA gyrase-inhibiting activity was assayed by comparing the supercoiled DNA amounts obtained when DGI protein was added, with those obtained when no DGI protein was added.
# 0.5 μg of pBR322 DNA (the supercoiled type, available from Takara Shuzo Co.) and 1 μl of topoisomerase I (available from Takara Shuzo Co.)(6 U/μl) were added to 20 μl of a reaction liquid (35 mM Tris-HCl (pH 8.0), 72 mM KCl, 5 mM MgCl2, 5 mM DTT, 5 mM spermidine and 0.01% bovine serum albumin) and reacted for 2 hours at 37° C. to prepare relaxed pBR322 DNA. […] As for the enzyme activity, the enzyme amount necessary to convert 50% of the amount of the relaxed plasmid DNA into the supercoiled DNA was expressed as one unit (U).
# [4] = tested on: E. coli GI724 strain; test: Growth of antisense RNA-expressing strain with tryptophan induction; type: cell-based, Escherichia coli; details: for turbidity OD600 / number of living cells: tryptophan added
# Protocol: An antisense expression vector was prepared by inserting a fragment containing the translation region of dgi gene (a fragment corresponding to the 255th-728th bases of Sequence ID NO:6) into the downstream of tryptophan (trp) promoter of vector plasmid pLEX (available from Invitrogen Co.).
# The vector was introduced into E. coli GI724 strain. The antisense RNA-expressing strain thus obtained was cultured under the condition of with or without adding tryptophan, and the change with the lapse of time in the number of living cells and turbidity (OD600) was measured. When expression induction by adding tryptophan was not carried out, the number of living cells and turbidity after 24 hours were increased up to 1×10^9 cfu/ml and 1.0, respectively. […] It has been reported that such abnormality in morphology was also observed when E. coli was treated with a new quinolone gyrase inhibitor (Takeshi Nishino et al., Chemotherapy, vol. 41(s-5), pp. 50-66, 1993). From the above result, it is considered that in E. coli wherein expression of dgi antisense RNA is induced, expression of dgi gene is repressed and the normal growth of bacteria is inhibited. In other words, a medical agent which inhibits the expression of dgi gene is useful as an antimicrobial agent.
# Chain of Escherichia coli DNA gyrase (subunit A and subunit B) (P0AES4 whole entry, one chain of several): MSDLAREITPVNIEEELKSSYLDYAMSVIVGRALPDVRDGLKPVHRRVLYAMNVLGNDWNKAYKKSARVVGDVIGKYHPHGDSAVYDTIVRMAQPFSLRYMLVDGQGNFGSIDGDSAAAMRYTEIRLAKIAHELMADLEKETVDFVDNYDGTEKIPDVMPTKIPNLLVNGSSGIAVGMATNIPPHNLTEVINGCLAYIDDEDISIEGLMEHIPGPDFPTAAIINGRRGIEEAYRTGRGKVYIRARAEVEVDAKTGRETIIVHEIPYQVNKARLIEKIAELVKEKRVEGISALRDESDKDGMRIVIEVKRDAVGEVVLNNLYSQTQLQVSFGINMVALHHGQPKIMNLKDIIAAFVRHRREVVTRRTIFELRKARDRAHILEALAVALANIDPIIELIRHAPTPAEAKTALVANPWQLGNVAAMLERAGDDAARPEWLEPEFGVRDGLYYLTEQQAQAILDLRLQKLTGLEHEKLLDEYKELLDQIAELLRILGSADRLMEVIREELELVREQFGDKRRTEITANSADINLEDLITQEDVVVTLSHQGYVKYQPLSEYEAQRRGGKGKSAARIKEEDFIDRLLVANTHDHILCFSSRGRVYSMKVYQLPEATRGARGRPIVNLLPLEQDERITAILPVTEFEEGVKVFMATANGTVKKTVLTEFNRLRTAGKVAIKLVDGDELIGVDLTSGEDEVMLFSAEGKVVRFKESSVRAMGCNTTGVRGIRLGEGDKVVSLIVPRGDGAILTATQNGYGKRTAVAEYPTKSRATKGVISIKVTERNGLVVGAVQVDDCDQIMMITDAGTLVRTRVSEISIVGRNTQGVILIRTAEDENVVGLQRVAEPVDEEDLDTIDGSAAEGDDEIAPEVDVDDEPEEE
# Chain of Escherichia coli DNA gyrase (subunit A and subunit B) (Escherichia coli) (P0AES4 2-875 limits assumed): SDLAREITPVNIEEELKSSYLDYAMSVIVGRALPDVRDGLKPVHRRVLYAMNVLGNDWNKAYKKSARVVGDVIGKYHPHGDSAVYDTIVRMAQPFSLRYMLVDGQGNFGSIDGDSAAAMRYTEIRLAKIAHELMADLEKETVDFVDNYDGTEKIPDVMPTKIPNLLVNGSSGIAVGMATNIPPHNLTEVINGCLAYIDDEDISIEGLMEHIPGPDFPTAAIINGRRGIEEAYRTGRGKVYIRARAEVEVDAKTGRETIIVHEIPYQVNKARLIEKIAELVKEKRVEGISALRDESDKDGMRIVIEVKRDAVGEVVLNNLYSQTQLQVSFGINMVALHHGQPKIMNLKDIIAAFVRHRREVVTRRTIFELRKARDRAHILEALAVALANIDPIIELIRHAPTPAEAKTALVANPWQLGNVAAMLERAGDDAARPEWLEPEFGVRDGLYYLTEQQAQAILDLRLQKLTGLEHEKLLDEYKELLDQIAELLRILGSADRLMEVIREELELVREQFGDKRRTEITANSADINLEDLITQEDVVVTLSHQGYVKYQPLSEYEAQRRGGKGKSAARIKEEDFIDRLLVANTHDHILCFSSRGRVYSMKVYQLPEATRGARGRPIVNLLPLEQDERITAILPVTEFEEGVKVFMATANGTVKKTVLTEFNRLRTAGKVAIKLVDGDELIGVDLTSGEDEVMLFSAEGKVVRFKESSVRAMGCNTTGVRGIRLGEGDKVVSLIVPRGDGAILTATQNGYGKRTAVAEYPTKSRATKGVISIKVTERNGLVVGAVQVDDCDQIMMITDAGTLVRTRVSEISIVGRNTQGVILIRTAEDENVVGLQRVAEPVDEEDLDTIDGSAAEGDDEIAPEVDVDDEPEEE
molecule,measurement,setting,value
DNA gyrase-inhibiting protein (DGI) derived from Escherichia coli (from UniProt B2TYH1 1-157),"supercoiling activity of DNA gyrase (relaxed pBR322 DNA, agarose gel)",[1],8 µg/ml
same,"supercoiling activity of DNA gyrase (relaxed pBR322 DNA, agarose gel, densitometry)",[1],> 6 µg/ml
B1,morphology of strains expressing a large amount of DGI,[2],lank and elongated
same,concentration perfectly inhibiting the supercoiling activity of DNA gyrase,"[3]; purified DGI isolated from Fraction No. 32 by Sephadex G-75, relaxed pBR322 DNA, subunit A 1 U, subunit B 1 U",8 µg/mL
same,concentration completely inhibiting the supercoiling activity of DNA gyrase,"[3]; recombinant purified DGI of Example 4, 1 hour at 37° C., tested 25 to 0.39 μg/ml",≥ 6 µg/mL
same,conversion to supercoiled DNA at concentration lower than 6 μg/ml,"[3]; recombinant purified DGI of Example 4, below 6 μg/ml",ended in an incomplete state
B2,morphology of bacteria,[4]; antisense RNA-expressing strain,elongation of the bacteria was observed
same,turbidity OD600,[4]; 8 hours after the addition,0.4
same,number of living cells,[4]; 8 hours after the addition (from 4×10^7 cfu/ml),1×10^8 cfu/ml
same,number of living cells,[4]; after 24 hours,5×10^6 cfu/ml
same,turbidity OD600,[4]; after 24 hours,~0.5
